This is an account of results in the supplement of paper PMC7877785.

The nature of this series: self-splicing fitness, log relative to wild type (ln ratio); higher = more splicing; Tetrahymena group I intron in knt gene, E. coli kanamycin selection, DiMSum; sequences stand for … in CUCUCU…GGAGGGAAAAGUUAUCAGGCAUGCACCUGGUAGCUAGUCUUUAAACCAAUAGAUUGCAUCGGUUUAAAAGGCAAGACCGUCAAAUUGCGGGAAAGGGGUCAACAGCCGUUCAGUACCAAGUCUCAGGGGAAACUUUGAGAUGGCCUUGCAAAGGGUAUGGUAAUAAGCUGACGGACAUGGUCCUAACCACGCAGCCAAGUCCUAAGUCAACAGAUCUUCUGUUGAUAUGGAUGCAGUUCACAGACUAAAUGUCGGUCGGGGAAGAUGUAUUCUUCUCAUAAGAUAUAGUCGGACCUCUCCUUAAUGGGAGCUAGCGGAUGAAGUGAUGCAACACUGGAGCCGCUGGGAACUAAUUUGUAUGCGAAAGUAUAUUGAUUAGUUUUGGAGUACUCGUGGUCG
The gist of the method: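 A randomised library covering all eight P1ex-region intron nucleotides was built with the intron in the knt kanamycin-resistance gene on pET-22b(+) and held in E. coli BL21(DE3). Cells were grown overnight at 37°C or 30°C on LB agar, with or without 25 μg/mL kanamycin, plus 100 μg/mL carbenicillin, 50 μM IPTG and 0.2% rhamnose, and pooled colonies were amplicon-sequenced on an Illumina HiSeq 2500. DiMSum fitness is the error-weighted combination of wild-type-normalised replicate fold changes, kanamycin versus none.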

± gives the uncertainty stated by the source.

Regarding CACAAGCAAUAUUACGGCAC, the “self-splicing fitness (ln)” value was -2.95 ± 0.19 (30 °C) and -1.56 ± 0.17 (37 °C).

UGAAAGCAAUAUUACGGUCA: the “self-splicing fitness (ln)” value (30 °C) is -0.166 ± 0.077 and the “self-splicing fitness (ln)” value (37 °C) is 0.339 ± 0.1.

For UUUAAGCAAUAUUACGGCCG, the “self-splicing fitness (ln)” value is -0.19 ± 0.21 (30 °C) and -0.0514 ± 0.26 (37 °C).

Consider ACCCAGCAAUAUUACGGACG, for which the “self-splicing fitness (ln)” value is -1.1 ± 0.07 (30 °C) and -0.9 ± 0.08 (37 °C).

As for GCUAAGCAAUAUUACGCUAA, the “self-splicing fitness (ln)” value is, setting by setting: (30 °C) -3.29 ± 0.34; (37 °C) -2.3 ± 0.21.

For AGCCAGCAAUAUUACGGACU, the “self-splicing fitness (ln)” value is -1.93 ± 0.088 (30 °C) and -0.917 ± 0.096 (37 °C).

In the case of AGCAAGCAAUAUUACGUACG, the “self-splicing fitness (ln)” value is -1.99 ± 0.13 (30 °C) and -0.695 ± 0.11 (37 °C).

As to ACAAAGCAAUAUUACGGCUG, the “self-splicing fitness (ln)” value (30 °C) is -0.524 ± 0.069 and the “self-splicing fitness (ln)” value (37 °C) is -0.277 ± 0.088.

On to UGUGAGCAAUAUUACGGGAA, for which the “self-splicing fitness (ln)” value (37 °C) was -2.51 ± 0.33.

For GCGUAGCAAUAUUACGUGAU, the “self-splicing fitness (ln)” value by setting is: (30 °C) -2.79 ± 0.24; (37 °C) -1.56 ± 0.19.

In the case of UGGGAGCAAUAUUACGUGUU, the “self-splicing fitness (ln)” value is, setting by setting: (30 °C) -3.63 ± 0.23; (37 °C) -2.91 ± 0.34.

On to UGAUAGCAAUAUUACGCACU, for which the “self-splicing fitness (ln)” value was -0.651 ± 0.14 (30 °C) and -0.218 ± 0.14 (37 °C).

Take CCUUAGCAAUAUUACGUCCA: the “self-splicing fitness (ln)” value (37 °C) was -1.92 ± 0.33.

Consider UAGCAGCAAUAUUACGUUAA, for which the “self-splicing fitness (ln)” value (30 °C) was -2.13 ± 0.099 and the “self-splicing fitness (ln)” value (37 °C) is -1.15 ± 0.084.

Take UCUAAGCAAUAUUACGGGCG: the “self-splicing fitness (ln)” value runs as follows: (30 °C) -1.54 ± 0.11; (37 °C) -0.979 ± 0.095.

Consider ACUCAGCAAUAUUACGGCGU, for which the “self-splicing fitness (ln)” value is -0.555 ± 0.059 (30 °C) and 0.0604 ± 0.074 (37 °C).

As for AAAUAGCAAUAUUACGUAUC, the “self-splicing fitness (ln)” value is -3.12 ± 0.28 (30 °C) and -1.51 ± 0.19 (37 °C).

Consider CGCGAGCAAUAUUACGGGAG, for which the “self-splicing fitness (ln)” value is -3.66 ± 0.19 (30 °C) and -2.91 ± 0.22 (37 °C).

On to UGCCAGCAAUAUUACGAGGA, for which the “self-splicing fitness (ln)” value is, setting by setting: (30 °C) -1.49 ± 0.17; (37 °C) -2.37 ± 0.22.

Turning to UACUAGCAAUAUUACGAACU, the “self-splicing fitness (ln)” value is, setting by setting: (30 °C) -1.14 ± 0.21; (37 °C) -1.51 ± 0.25.

With AUAGAGCAAUAUUACGCGAA, the “self-splicing fitness (ln)” value by setting is: (30 °C) -1.34 ± 0.093; (37 °C) -1.1 ± 0.11.

CCCCAGCAAUAUUACGGUAA: the “self-splicing fitness (ln)” value is -3.78 ± 0.15 (30 °C) and -2.78 ± 0.16 (37 °C).

For the sequence CACUAGCAAUAUUACGUUCG, the “self-splicing fitness (ln)” value (30 °C) was determined as 0.203 ± 0.084 and the “self-splicing fitness (ln)” value (37 °C) is 0.725 ± 0.11.

As to CUAAAGCAAUAUUACGCAGA, the “self-splicing fitness (ln)” value is -3.64 ± 0.2 (30 °C) and -3.29 ± 0.42 (37 °C).

As to GAUCAGCAAUAUUACGAACU, the “self-splicing fitness (ln)” value (30 °C) is -0.585 ± 0.056 and the “self-splicing fitness (ln)” value (37 °C) stood at 0.06 ± 0.073.

Regarding UUUGAGCAAUAUUACGGUGG, the “self-splicing fitness (ln)” value (30 °C) was -2.98 ± 0.31.

For CAUGAGCAAUAUUACGCCGG, the “self-splicing fitness (ln)” value runs as follows: (30 °C) -3.79 ± 0.22; (37 °C) -2.14 ± 0.26.

In the case of AUAGAGCAAUAUUACGAUAA, the “self-splicing fitness (ln)” value was -1.23 ± 0.16 (30 °C) and -0.812 ± 0.23 (37 °C).

In the case of CUAAAGCAAUAUUACGCGUC, the “self-splicing fitness (ln)” value was -3.94 ± 0.31 (30 °C) and -2.17 ± 0.25 (37 °C).

As to GAUUAGCAAUAUUACGUUUA, the “self-splicing fitness (ln)” value reads like this: (30 °C) -2.9 ± 0.25; (37 °C) -1.05 ± 0.15.

In the case of UUUGAGCAAUAUUACGGAAC, the “self-splicing fitness (ln)” value (30 °C) is -1.63 ± 0.16 and the “self-splicing fitness (ln)” value (37 °C) was -1.2 ± 0.24.

With CCAUAGCAAUAUUACGUGCC, where the note is “37 °C”, the “self-splicing fitness (ln)” value was -2.41 ± 0.41.

Take UAGAAGCAAUAUUACGUCAA: the “self-splicing fitness (ln)” value by setting is: (30 °C) -2.08 ± 0.16; (37 °C) -0.86 ± 0.12.

Regarding AACAAGCAAUAUUACGCGAU, the “self-splicing fitness (ln)” value is, setting by setting: (30 °C) -3.61 ± 0.17; (37 °C) -1.57 ± 0.12.

Turning to GGUAAGCAAUAUUACGUGAA, the “self-splicing fitness (ln)” value was -1.52 ± 0.098 (30 °C) and -1.18 ± 0.14 (37 °C).

Take CGAGAGCAAUAUUACGGAGU: the “self-splicing fitness (ln)” value is -4.55 ± 0.42 (30 °C) and -1.6 ± 0.2 (37 °C).

CUCUAGCAAUAUUACGUGUA: the “self-splicing fitness (ln)” value by setting is: (30 °C) -3.62 ± 0.21; (37 °C) -4.02 ± 0.27.

Turning to ACUCAGCAAUAUUACGUCUA, the “self-splicing fitness (ln)” value was -0.845 ± 0.081 (30 °C) and -0.152 ± 0.076 (37 °C).

Turning to ACAGAGCAAUAUUACGUAUC, the “self-splicing fitness (ln)” value runs as follows: (30 °C) -4.32 ± 0.29; (37 °C) -1.46 ± 0.14.

As to UAUUAGCAAUAUUACGAUCA, the “self-splicing fitness (ln)” value was -0.168 ± 0.11 (30 °C) and -0.249 ± 0.14 (37 °C).

For the sequence UAUGAGCAAUAUUACGCGAC, the “self-splicing fitness (ln)” value by setting is: (30 °C) -2.82 ± 0.44; (37 °C) -0.954 ± 0.39.

As to CUCUAGCAAUAUUACGGACA, the “self-splicing fitness (ln)” value (30 °C) is -2.52 ± 0.47 and the “self-splicing fitness (ln)” value (37 °C) was -2.66 ± 0.4.

On to AAACAGCAAUAUUACGCACU, for which the “self-splicing fitness (ln)” value by setting is: (30 °C) -0.221 ± 0.079; (37 °C) 0.0967 ± 0.091.

In the case of GGUCAGCAAUAUUACGAUGU, the “self-splicing fitness (ln)” value reads like this: (30 °C) -0.0366 ± 0.056; (37 °C) 0.261 ± 0.076.

As to UGGCAGCAAUAUUACGUUUC, the “self-splicing fitness (ln)” value (30 °C) was -3.1 ± 0.14 and the “self-splicing fitness (ln)” value (37 °C) was -2.77 ± 0.26.

For UAGCAGCAAUAUUACGUGGG, the “self-splicing fitness (ln)” value (30 °C) is -3.61 ± 0.11 and the “self-splicing fitness (ln)” value (37 °C) is -2.42 ± 0.13.

Turning to GCAAAGCAAUAUUACGUAUA, the “self-splicing fitness (ln)” value runs as follows: (30 °C) -1.65 ± 0.19; (37 °C) -1.48 ± 0.19.

For the sequence UGCUAGCAAUAUUACGAUAA, the “self-splicing fitness (ln)” value runs as follows: (30 °C) -1.64 ± 0.15; (37 °C) -0.358 ± 0.14.

For AGCCAGCAAUAUUACGCCUG, the “self-splicing fitness (ln)” value runs as follows: (30 °C) -2.37 ± 0.16; (37 °C) -2.11 ± 0.27.

Regarding UAGUAGCAAUAUUACGACGC, the “self-splicing fitness (ln)” value is, setting by setting: (30 °C) -3.61 ± 0.25; (37 °C) -0.996 ± 0.21.

For the sequence ACAGAGCAAUAUUACGCUGG, the “self-splicing fitness (ln)” value is -3.47 ± 0.14 (30 °C) and -2.53 ± 0.16 (37 °C).

As for AGUAAGCAAUAUUACGAUGG, the “self-splicing fitness (ln)” value (30 °C) is -3.99 ± 0.23 and the “self-splicing fitness (ln)” value (37 °C) is -1.56 ± 0.26.

Regarding UAAAAGCAAUAUUACGUUGA, the “self-splicing fitness (ln)” value (30 °C) is -2.41 ± 0.11 and the “self-splicing fitness (ln)” value (37 °C) is -1.46 ± 0.11.

Consider AUUCAGCAAUAUUACGUAUG, for which the “self-splicing fitness (ln)” value is -2.34 ± 0.13 (30 °C) and -0.383 ± 0.12 (37 °C).

For GAGCAGCAAUAUUACGGUCA, the “self-splicing fitness (ln)” value (30 °C) is -0.942 ± 0.11 and the “self-splicing fitness (ln)” value (37 °C) was -0.118 ± 0.11.

Consider UGAGAGCAAUAUUACGGGCG, for which the “self-splicing fitness (ln)” value is -2.04 ± 0.21 (30 °C) and -0.434 ± 0.19 (37 °C).

For ACAUAGCAAUAUUACGGUGU, the “self-splicing fitness (ln)” value is, setting by setting: (30 °C) -3.8 ± 0.21; (37 °C) -3.54 ± 0.3.

With CGGGAGCAAUAUUACGCGCC, for the setting “37 °C”, the “self-splicing fitness (ln)” value was -1.51 ± 0.43.

Take GAGAAGCAAUAUUACGUCUA: the “self-splicing fitness (ln)” value (30 °C) is -0.555 ± 0.076 and the “self-splicing fitness (ln)” value (37 °C) was determined as 0.35 ± 0.092.

As for UUGAAGCAAUAUUACGGUAG, the “self-splicing fitness (ln)” value is, setting by setting: (30 °C) -0.0974 ± 0.088; (37 °C) 0.0801 ± 0.12.

Turning to CCUGAGCAAUAUUACGCGCU, the “self-splicing fitness (ln)” value by setting is: (30 °C) -4.19 ± 0.39; (37 °C) -2.1 ± 0.24.
